From patent publication US20230114801A1 (SYSTIMMUNE, published 2023)
Blank lines part the entries; values can stand above or below the binder they belong to.

Key:
Test in all cases: BLI (Octet), binder on AHC sensor, 100 nM human antigen, 1:1 fit
[1] = molecular target: T1, human PD-L1 (human, UniProt Q9NZQ7 19-238)
T1 construct: Soluble antigen in Octet; bought; also called human PD-L1 (Acro PD1-H5229)

[2] = molecular target: T2, human CD3 (human, UniProt P07766 23-126; P04234 22-105)
T2 construct: also called His-tagged human CD3; human CD3 (Acro CDD-H52W1)

[3] = molecular target: T3, human EGFR (human, UniProt P00533 25-645, limits assumed)
T3 construct: Soluble antigen in Octet; construct not described

[4] = molecular target: T4, human 4-1BB (human, UniProt Q07011 24-186, limits assumed)
T4 construct: Soluble antigen in Octet; construct not described

- Kd [1]: 1 nM
- Kd [2]: 17.4 nM
- Kd [3]: 8.91 nM
- Kd [4]: 7.51 nM
B1: SI-75P3 (other)
chain 1: EIVLTQSPSTLSVSPGERATFSCRASQSIGTNIHWYQQKPGKPPRLLIKYASESISGIPDRFSGSGSGTEFTLTISSVQSEDFAVYYCQQNNNWPTTFGPGTKLTVLGGGGSGGGGSGGGGSGGGGSQVQLQQSGPGLVKPSETLSITCTVSGFSLTNYGVHWIRQAPGKGLEWLGVIWSGGNTDYNTPFTSRFTITKDNSKNQVYFKLRSVRADDTAIYYCARALTYYDYEFAYWGQGTLVTVSSGGGGSGGGGSEVQLVESGGGLVQPGGSLRLSCAASGFTISTNAMSWVRQAPGKGLEWIGVITGRDITYYASWAKGRFTISRDNSKNTLYLQMNSLRAEDTAVYYCARDGGSSAITSNNIWGQGTLVTVSSASTKGPSVFPLAPSSKSTSGGTAALGCLVKDYFPEPVTVSWNSGALTSGVHTFPAVLQSSGLYSLSSVVTVPSSSLGTQTYICNVNHKPSNTKVDKRVEPKSCDKTHTCPPCPAPEAAGGPSVFLFPPKPKDTLMISRTPEVTCVVVDVSHEDPEVKFNWYVDGVEVHNAKTKPREEQYNSTYRVVSVLTVLHQDWLNGKEYKCAVSNKALPAPIEKTISKAKGQPREPQVYTLPPSRDELTKNQVSLSCAVKGFYPSDIAVEWESNGQPENNYKTTPPVLDSDGSFFLVSKLTVDKSRWQQGNVFSCSVMHEALHNHYTQKSLSLSPGGGGGSGGGGSDVVMTQSPSSVSASVGDRVTITCQASQNIRTYLSWYQQKPGKAPKLLIYAAANLASGVPSRFSGSGSGTDFTLTISDLEPGDAATYYCQSTYLGTDYVGGAFGGGTKLTVLGGGGSGGGGSGGGGSGGGGSEVQLVESGGGLVQPGGSLRLSCTASGFTISSYHMQWVRQAPGKGLEYIGTISSGGNVYYASSARGRFTISRPSSKNTVDLQMNSLRAEDTAVYYCARDSGYSDPMWGQGTLVTVSS
chain 2: QSALTQPASVSGSPGQSITISCTGTSSDVGGYNFVSWYQQHPGKAPKLMIYDVSDRPSGVSDRFSGSKSGNTASLIISGLQADDEADYYCSSYGSSSTHVIFGGGTKVTVLGGGGSGGGGSGGGGSGGGGSQVQLQESGGGLVKPGGSLSLSCAASGFTFSSYWMSWVRQAPGKGLEWVANINRDGSASYYVDSVKGRFTISRDDAKNSLYLQMNSLRAEDTAVYYCARDRGVGYFDLWGRGTLVTVSSGGGGSGGGGSDVVMTQSPSTLSASVGDRVTINCQASESISSWLAWYQQKPGKAPKLLIYEASKLASGVPSRFSGSGSGTEFTLTISSLQPDDFATYYCQGYFYFISRTYVNSFGGGTKVEIKRTVAAPSVFIFPPSDEQLKSGTASVVCLLNNFYPREAKVQWKVDNALQSGNSQESVTEQDSKDSTYSLSSTLTLSKADYEKHKVYACEVTHQGLSSPVTKSFNRGECGGDKTHTCPPCPAPEAAGGPSVFLFPPKPKDTLMISRTPEVTCVVVDVSHEDPEVKFNWYVDGVEVHNAKTKPREEQYNSTYRVVSVLTVLHQDWLNGKEYKCAVSNKALPAPIEKTISKAKGQPREPQVYTLPPSRDELTKNQVSLWCLVKGFYPSDIAVEWESNGQPENNYKTTPPVLDSDGSFFLYSKLTVDKSRWQQGNVFSCSVMHEALHNRFTQKSLSLSPGGGGGSGGGGSDIQMTQSPSTLSASVGDRVTITCQASQSISSHLNWYQQKPGKAPKLLIYKASTLASGVPSRFSGSGSGTEFTLTISSLQPDDFATYYCQQGYSWGNVDNVFGGGTKVTVLGGGGSGGGGSGGGGSGGGGSEVQLLESGGGLVQPGGSLSLSCAASGFSFSSGYDMCWVRQAPGKGLEWIACIAAGSAGITYDANWAKGRFTISRDNSKNTLYLQMNSLRAEDTAVYYCARSAFSFDYAMDLWGQGTLVTVSS
notes: penta-miniGNC; D1 αEGFR, D2 αHER3, D3 αCD3 (Fab), D4 α4-1BB, D5 αPD-L1

- Kd [1]: 2.7 nM
- Kd [2]: 20.1 nM
- Kd [3]: 11.1 nM
- Kd [4]: 21.2 nM
B2: SI-75P9 (other)
chain 1: EIVLTQSPSTLSVSPGERATFSCRASQSIGTNIHWYQQKPGKPPRLLIKYASESISGIPDRFSGSGSGTEFTLTISSVQSEDFAVYYCQQNNNWPTTFGPGTKLTVLGGGGSGGGGSGGGGSGGGGSQVQLQQSGPGLVKPSETLSITCTVSGFSLTNYGVHWIRQAPGKGLEWLGVIWSGGNTDYNTPFTSRFTITKDNSKNQVYFKLRSVRADDTAIYYCARALTYYDYEFAYWGQGTLVTVSSGGGGSGGGGSQVQLQESGGGLVKPGGSLRLSCAASGFTFSSYWMSWVRQAPGKGLEWVANINRDGSASYYVDSVKGRFTISRDDAKNSLYLQMNSLRAEDTAVYYCARDRGVGYFDLWGRGTLVTVSSASTKGPSVFPLAPSSKSTSGGTAALGCLVKDYFPEPVTVSWNSGALTSGVHTFPAVLQSSGLYSLSSVVTVPSSSLGTQTYICNVNHKPSNTKVDKRVEPKSCDKTHTCPPCPAPEAAGGPSVFLFPPKPKDTLMISRTPEVTCVVVDVSHEDPEVKFNWYVDGVEVHNAKTKPREEQYNSTYRVVSVLTVLHQDWLNGKEYKCAVSNKALPAPIEKTISKAKGQPREPQVYTLPPSRDELTKNQVSLSCAVKGFYPSDIAVEWESNGQPENNYKTTPPVLDSDGSFFLVSKLTVDKSRWQQGNVFSCSVMHEALHNHYTQKSLSLSPGGGGGSGGGGSDVVMTQSPSSVSASVGDRVTITCQASQNIRTYLSWYQQKPGKAPKLLIYAAANLASGVPSRFSGSGSGTDFTLTISDLEPGDAATYYCQSTYLGTDYVGGAFGGGTKLTVLGGGGSGGGGSGGGGSGGGGSEVQLVESGGGLVQPGGSLRLSCTASGFTISSYHMQWVRQAPGKGLEYIGTISSGGNVYYASSARGRFTISRPSSKNTVDLQMNSLRAEDTAVYYCARDSGYSDPMWGQGTLVTVSS
chain 2: DVVMTQSPSTLSASVGDRVTINCQASESISSWLAWYQQKPGKAPKLLIYEASKLASGVPSRFSGSGSGTEFTLTISSLQPDDFATYYCQGYFYFISRTYVNSFGGGTKVEIKGGGGSGGGGSGGGGSGGGGSEVQLVESGGGLVQPGGSLRLSCAASGFTISTNAMSWVRQAPGKGLEWIGVITGRDITYYASWAKGRFTISRDNSKNTLYLQMNSLRAEDTAVYYCARDGGSSAITSNNIWGQGTLVTVSSGGGGSGGGGSQSALTQPASVSGSPGQSITISCTGTSSDVGGYNFVSWYQQHPGKAPKLMIYDVSDRPSGVSDRFSGSKSGNTASLIISGLQADDEADYYCSSYGSSSTHVIFGGGTKVTVLRTPKANPTVTLFPPSSEELQANKATLVCLISDFYPGAVTVAWKADGSPVKAGVETTKPSKQSNNKYAASSYLSLTPEQWKSHRSYSCQVTHEGSTVEKTVAPTECSGGDKTHTCPPCPAPEAAGGPSVFLFPPKPKDTLMISRTPEVTCVVVDVSHEDPEVKFNWYVDGVEVHNAKTKPREEQYNSTYRVVSVLTVLHQDWLNGKEYKCAVSNKALPAPIEKTISKAKGQPREPQVYTLPPSRDELTKNQVSLWCLVKGFYPSDIAVEWESNGQPENNYKTTPPVLDSDGSFFLYSKLTVDKSRWQQGNVFSCSVMHEALHNRFTQKSLSLSPGGGGGSGGGGSDIQMTQSPSTLSASVGDRVTITCQASQSISSHLNWYQQKPGKAPKLLIYKASTLASGVPSRFSGSGSGTEFTLTISSLQPDDFATYYCQQGYSWGNVDNVFGGGTKVTVLGGGGSGGGGSGGGGSGGGGSEVQLLESGGGLVQPGGSLSLSCAASGFSFSSGYDMCWVRQAPGKGLEWIACIAAGSAGITYDANWAKGRFTISRDNSKNTLYLQMNSLRAEDTAVYYCARSAFSFDYAMDLWGQGTLVTVSS
notes: penta-miniGNC; D1 αEGFR, D2 αCD3, D3 αHER3 (Fab), D4 α4-1BB, D5 αPD-L1
